Data published in article PMC9486129 (2022).
Where no end group is shown, it is not given here. [ ]: non-standard residue; d: D form. pY = N[C@@H](Cc1ccc(OP(=O)(O)O)cc1)C(=O)O

Legend:
ZAP-70 tSH2 WT (1–256) [1] = target: T1, ZAP-70 tSH2 WT (1–256); experiment: Kd1, first site (intrinsic fluorescence titration)
T1 chain: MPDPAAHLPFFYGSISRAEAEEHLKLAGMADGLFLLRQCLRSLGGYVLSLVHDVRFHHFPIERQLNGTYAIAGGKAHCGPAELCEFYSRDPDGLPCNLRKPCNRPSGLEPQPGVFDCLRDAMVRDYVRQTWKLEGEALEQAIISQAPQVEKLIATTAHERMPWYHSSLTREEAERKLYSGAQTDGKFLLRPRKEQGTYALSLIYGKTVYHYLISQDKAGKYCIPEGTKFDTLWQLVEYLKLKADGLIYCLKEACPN

ZAP-70 tSH2 WT (1–256) [2] = target: T1, ZAP-70 tSH2 WT (1–256); experiment: ITC; Kd2, second site
ITAM-Y2P-ζ3 ITAM3 = ITAM-Y2P-ζ3 ITAM3 (Homo sapiens, UniProt P20963, doubly phosphorylated ITAM)
ITAM-Y2P-ζ3 ITAM3, sequence (P20963 128-162): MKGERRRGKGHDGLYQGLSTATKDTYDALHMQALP

Question: NQL[pY]NELNLGRRAE[pY]DVLD [ITAM-Y2P-ζ1 E13A] was tested. Which Kd (ZAP-70 tSH2 WT (1–256) [1]) did it give?
Answer: 4.5 nM

Question: And the Kd (ZAP-70 tSH2 WT (1–256) [2])?
Answer: 9800 nM

B1: ZAP-70 C-SH2 (protein)
chain: WYHSSLTREEAERKLYSGAQTDGKFLLRPRKEQGTYALSLIYGKTVYHYLISQDKAGKYCIPEGTKFDTLWQLVEYLKLKADGLIYCLKEAC
Question: For B1, which Kd (ITAM-Y2P-ζ3 ITAM3) is on record?
Answer: 6.8 nM
